Reference: PMC9342958

Target: CARD9 CARD fused to mEos3.1 (human)
Assay: FRET or BRET; DAmFRET (Distributed Amphifluoric FRET) in living S. cerevisiae: protein fused to mEos3.1, GAL promoter, about 16 hr in galactose, part of mEos3.1 photoconverted to the acceptor form, AmFRET against expression level by flow cytometry

## CARD9 CARD fused to mEos3.1 (domain or fragment)
  threshold concentration of polymerisation: 100 µM
